This is an account of results in article PMC4712875.

For the experiment, the target named is FGFR3 of chick prechordal mesoderm cells (chick (endogenous in prechordal mesoderm cells)) (UniProt P18460). As to the kind of experiment: immunostaining of cells or tissue; isolated st6 chick prechordal mesoderm cells cultured until st8, incubated with proNodal-FLAG, detected with anti-FLAG; non-targeted cells.
Chain of UniProt P18460 (P18460 20-806): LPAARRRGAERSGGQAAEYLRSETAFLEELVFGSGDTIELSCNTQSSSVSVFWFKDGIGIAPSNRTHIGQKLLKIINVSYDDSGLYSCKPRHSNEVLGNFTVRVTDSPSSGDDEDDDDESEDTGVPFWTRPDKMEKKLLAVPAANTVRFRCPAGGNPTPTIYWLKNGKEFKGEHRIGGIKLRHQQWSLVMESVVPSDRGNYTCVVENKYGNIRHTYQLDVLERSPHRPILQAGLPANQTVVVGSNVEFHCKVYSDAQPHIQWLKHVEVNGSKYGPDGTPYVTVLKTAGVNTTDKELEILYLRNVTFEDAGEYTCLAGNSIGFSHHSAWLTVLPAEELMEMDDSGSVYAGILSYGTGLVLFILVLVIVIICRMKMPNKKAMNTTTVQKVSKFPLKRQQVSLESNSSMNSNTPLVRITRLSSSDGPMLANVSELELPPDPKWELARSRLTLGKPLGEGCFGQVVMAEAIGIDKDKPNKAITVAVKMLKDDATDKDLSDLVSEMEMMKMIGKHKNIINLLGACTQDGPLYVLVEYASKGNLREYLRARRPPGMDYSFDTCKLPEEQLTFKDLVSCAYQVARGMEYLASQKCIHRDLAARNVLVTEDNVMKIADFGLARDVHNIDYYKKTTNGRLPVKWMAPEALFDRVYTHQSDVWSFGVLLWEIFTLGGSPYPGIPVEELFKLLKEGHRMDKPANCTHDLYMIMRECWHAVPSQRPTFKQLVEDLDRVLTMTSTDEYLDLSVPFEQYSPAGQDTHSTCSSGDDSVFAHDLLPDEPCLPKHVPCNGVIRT

“recombinant proNodal (recombinant Nodal cleavage mutant resistant to proprotein convertases), FLAG-tagged (from UniProt P43021 27-354) (ligand)” registered a percent of DAPI+ nuclei closely associated with anti-FLAG of 79%.
